From patent US6919086B1, “Graminae pollen allergen mutants for specific immunotherapy, and production and use of the same” (Merck Patent Gesellschaft mit, priority 1997, dated 2005)
“Also recorded” adds a separate entry of the source. Like-named read-outs stand apart in the source and are kept apart here.

Columns and labels:
[1] = test system: IgE antibodies of allergic patients; test: EAST inhibition test (IgE reactivity / allergenicity); type: binding, human; conditions: for IC50: read-out: Inhibition value 50% (concentration of the inhibitor at 50% inhibition); for Allergenic potency (Prel) 25%: relative to native Phl p 5b at 25% inhibition; for Allergenic potency (Prel) 50%: relative to native Phl p 5b at 50% inhibition
Experimental: The effects of the induced mutations on the allergenicity, i.e. the ability to bind to the IgE antibodies of allergic patients, of the modified recombinant allergens is determined qualitatively and quantitatively by means of the EAST inhibition test. […] The extent of the immunochemical relatedness (cross reactivity) can also be quantified. This EAST inhibition test only takes the reaction with IgE antibodies into account.
The binding of the allergens by the IgE antibodies is the basic prerequisite for the allergen-specific activation of the effector cells (mast cells, basophils, inter alia) in type I allergy. The allergen-specific inhibition of the enzyme/allergen sorbent test (EAST) is the best means for qualitatively and quantitatively recording the binding of the allergens to IgE anti-bodies. The EAST inhibition test is carried out as follows. Microtitre plates are coated with allergen (natural or recombinant Ph1 p 5 or Ph1 p 5b) (1 μg/ml). After the unbound allergen molecules have been removed by washing, non-specific plastic binding sites are blocked with bovine serum albumin (0.5%). […] from allergic patients, as a representative pool of 10-30 donors or as an individual serum, is incubated, in a suitable dilution, with the allergen-coated microtritre plates. The bound allergen-specific IgE antibodies are quantified using enzyme-coupled anti-IgE antibodies (e.g. alk. phosphatase-a-IgE antibodies). This binding is inhibited by soluble allergen or the substance to be tested (allergen mutants) in dependence on the concentration. The inhibition curve obtained with the purified natural allergen Ph1 p 5b is used as the reference.

[2] = test system: Phl p 5b-reactive T cell lines (TCLs) from allergic patients; test: Proliferative reaction of Phl p 5b-reactive oligoclonal T cell lines ([3H]-thymidine incorporation); type: cell-based, human; conditions: secondary activator 0.3 μM
Experimental: In the second phase, oligoclonal T cell lines, which have been established by repeated stimulation with the relevant allergens, are employed for the testing. Once again, only those modified recombinant allergens which at least give rise to a stimulation index (SI) of 50% of the SI of the wild type are taken into consideration.
40 ml of heparinized blood were obtained from each patient. Peripheral mononuclear cells (PBMC) were then isolated from this blood sample by means of the customary method using density gradient centrifugation. Analogous cell isolations were carried out at a later stage when it was necessary to obtain irradiated autologous antigen-presenting cells (APC) for characterizing the TCL and TCC further. After the PBMC had been counted, TCL which reacted to group 5 allergens in vitro were established as follows and as has already been described in detail elsewhere (Lit. 1): in each well of 24-well microculture plates, from 1.5 to 2.0×10^6 PBMC in 1 ml of culture medium (UltraCulture) were stimulated for 7 days in the added presence of natural Phl p5 allergens (in each case 10 μg/well) which had been purified by immunoaffinity chromatography. A total of from 8 to 10 of these cultures were set up. The isolation of Phl p5 by means of immunoaffinity chromatography has been described in detail (Lit. 2). At the end of the 7 days of culture, IL-2 (from 10 to 20 IU/well) was added to the cell cultures for a further 5 to 7 days. All the individual cultures were then pooled and the T cell blasts were enriched by means of density gradient centrifugation; the TCL which were obtained were then tested in a specific lymphocyte proliferation test (see Lit. 1 as well). For this, 2×10^4/ml TCL blasts were in each case cultured with 5×10^4/ml irradiated autologous APCs in triplicate samples in 96-well microculture plates. 10-20 μg of Phl p5 allergen were added as the specific antigen stimulus. After 56 hours of incubation, ^3H-labelled thymidine (1 μCi/well) was pipetted into the microcultures. After a further 16 hours, the radioactivity which had been incorporated into the proliferating T cell blasts was measured in a beta counter (Matrix 96). The results were calculated, as the arithmetic mean of the multiple samples, in counts per minute (cpm). The criterion for the quality of the TCL was the stimulation index, which was obtained by relating the cpm values with Phl p5 addition to those without Phl p5 addition.
The oligoclonal T cell lines (TCLs) from 8 patients who were allergic to grass pollen (see Ex. 1) were established by repeated activation with natural Ph1 p 5b (a+b) or recombinant rPh1 p 5b or 5a+5b.
The proliferative reaction of these TCLs was tested using the rPh1 p 5b mutants (FIG. 10).

[3] = allergic patient serum pool Bor 18/100
[4] = allergic patient serum pool We 6/97
[5] = individual allergic patient serum II/3
[6] = individual allergic patient serum II/17

B1: DM1: deletion mutant of rPhl p 5b (ΔK50-P132, D49→L), SEQ ID NO 91 (protein)
chain: ADAGYAPATPAAAGAAAGKATTEEQKLIEDINVGFKAAVAAAASVPAALAGELQIIDKIDAAFKVAATAAATAPADDKFTVFEAAFNKAIKESTGGAYDTYKCIPSLEAAVKQAYAATVAAAPQVKYAVFEAALTKAITAMSEVQKVSQPATGAATVAAGAATTAAGAASGAATVAAGGYKV
- Allergenicity / IgE reactivity, overall assessment (in words) ([1]; all serum pools and individual sera, Prel values): marked reduction in allergenicity; also recorded: greatly reduced, it is still detectable
- Inhibition value 25% (concentration of the inhibitor at 25% inhibition) [1, 3]: 8.6e-09 mol/L
- IC50 [1, 3]: 28 nM
- Inhibition value 25% (concentration of the inhibitor at 25% inhibition) [1, 4]: 2.3e-08 mol/L
- IC50 [1, 4]: 17000 nM
- Inhibition value 25% (concentration of the inhibitor at 25% inhibition) [1, 5]: 1.2e-08 mol/L
- IC50 [1, 5]: 17 nM
- Inhibition value 25% (concentration of the inhibitor at 25% inhibition) ([1]; individual allergic patient serum II/12): 1.5e-05 mol/L
- Inhibition value 25% (concentration of the inhibitor at 25% inhibition) [1, 6]: 6.5e-09 mol/L
- IC50 [1, 6]: 2 nM
- Allergenic potency (Prel) 25% ([1]; individual serum II/3): 0.0420
- Allergenic potency (Prel) 25% ([1]; individual serum II/12): 3.4 × 10^−5
- Allergenic potency (Prel) 25% ([1]; individual serum II/17): 0.033
- Allergenic potency (Prel) 25% ([1]; serum pool Bor 18/100): 0.039
- Allergenic potency (Prel) 25% ([1]; serum pool We 6/97): 0.022
- Allergenic potency (Prel) 50% ([1]; individual serum II/3): 0.0035
- Allergenic potency (Prel) 50% ([1]; individual serum II/12): 1.0 × 10^−10
- Allergenic potency (Prel) 50% ([1]; individual serum II/17): 0.0010
- Allergenic potency (Prel) 50% ([1]; serum pool Bor 18/100): 0.0015
- Allergenic potency (Prel) 50% ([1]; serum pool We 6/97): 0.0004
- EAST inhibition curve / inhibitory effect (in words) ([1]; serum pool Bor 18/100 (20 donors), FIG. 1): markedly decreased inhibitory effect
- Allergenicity from EAST inhibition curves (in words) ([1]; serum pool We 6/97 and individual sera II3, II12, II17, FIGS. 2-5): greatly reduced allergenicity
- Incorporation of [3H]-thymidine into TCL 2 Eic (stimulation index class) ([2]; primary stimulator n Phl p 5): + (1-2 (+))
- Incorporation of [3H]-thymidine into TCL 3 Fre (stimulation index class) ([2]; primary stimulator n Phl p 5): + (1-2 (+))
- Incorporation of [3H]-thymidine into TCL 4 Mer (stimulation index class) ([2]; primary stimulator n Phl p 5): + (1-2 (+))
- Incorporation of [3H]-thymidine into TCL 5 17.4 (stimulation index class) ([2]; primary stimulator r Phl p 5): + (1-2 (+))
- Incorporation of [3H]-thymidine into TCL 6 Mah (stimulation index class) ([2]; primary stimulator r Phl p 5a, r Phl p 5b): ++ (5-10 (++))
- Incorporation of [3H]-thymidine into TCL 7 19.2 (stimulation index class) ([2]; primary stimulator r Phl p 5b): +++ (>10 (+++))
- Incorporation of [3H]-thymidine into TCL 8 20.1 (stimulation index class) ([2]; primary stimulator r Phl p 5b): +++ (>10 (+++))
